What is called Kd is the constant that tells how readily two partners part at equilibrium. Read a low Kd as tighter binding.

In US20260209311A1, “MODIFIED G PROTEIN COUPLED RECEPTOR AND USE THEREOF” (ALPHELIX BIOTECH CO., LTD., priority 2023, published 2026) one finds Kd data, which are given here for three substances.

The target in assay [1] is MC4R WT. The assay is described as follows: SPR; 1:1 kinetic, 25 C.
Assay [2] concerns the target MC4R WT. The assay is described as follows: SPR; steady state affinity, 25 C.

For a-MSH, the results for the equilibrium dissociation constant (Kd) with MC4R WT [1] and with MC4R WT [2] were 155 nM and 313 nM, respectively.
Turning to SHU 9119, the values for the Kd with MC4R WT [1] and with MC4R WT [2] were 0.00837 nM and 5.74 nM, respectively.
As to Setmelanotide, the Kd with MC4R WT [1] stood at 35.3 nM; with MC4R WT [2], 9.72 nM.
